Data as given in patent publication US9340588B2, “Peptide secreted by Lactobacillus plantarum with immunomodulating function” (Imperial Innovations Limited, priority 2011, dated 2016).

What was measured:
[1] = test system: enriched dendritic cells from human blood (LDCs); assay: Surface marker expression on blood-enriched dendritic cells (LDCs), flow cytometry; assay type: cell-based; details: for activation molecule CD83 on DCs / co-stimulating molecule CD40 on DCs / induction of MHC type II molecules (HLA-DR) on DCs: ST peptide 0.1-10 μg/mL or LPS 100 ng/mL, FIG. 5 panel B
From the text: (§1) The dendritic cells were obtained from healthy patients who had neither autoimmune diseases, nor inflammatory diseases nor allergies nor malignant tumors. These subjects had given their written consent for their blood to be used for scientific purposes. The peripheral blood mononuclear cells (PBMCs) were isolated by differential centrifugation in Ficoll-Paque Plus (Amersham Biosciences, Chalfont St. Giles, UK). The cellular fraction LDC (low-density cells) was obtained by overnight centrifugation in NycoPrepe™ solution. The cells present in this LDC fraction were HLA-DR positive in 98-100% of cases, with morphological characteristics typical of the DCs (Ng, et al. (2009). A novel population of human CD56+ human leukocyte antigen D-related (HLA-DR+) colonic lamina propria cells is associated with inflammation in ulcerative colitis. Clin. Exp. Immuno1.158, 205-218).
Half a million LDCs per milliliter were cultured in complete medium (Dutch modified RPMI 1640 (Sigma-Aldrich, Dorset, UK) containing 100 U/mL penicillin/streptomycin, 2 mM L-glutamine, […] gentamicin (Sigma-Aldrich) and fetal bovine serum at 10% (v/v) (TCS cellworks, Buckingham, UK)). These cultures were carried out in the presence of the ST peptide identified as SEQ ID NO: 1 purified at concentrations of 10 μg/mL, 1 μg/mL and 0.1 μg/mL, and of LPS (100 ng/mL) (Sigma-Aldrich, St. Louis, USA) as positive control. The results were compared with parallel cultures without ST peptide identified as SEQ ID NO: 1 nor added LPS, acting as negative controls.
For the various experiments, labeling of the cells with the various antibodies (Table 1) was carried out in PBS supplemented with 1 mM EDTA and sodium azide at 0.02% (w/v) (FACS buffer). Labeling was carried out for 20 minutes in ice, in the dark. The cells were then washed with FACS buffer and were fixed with paraformaldehyde at 1% (v/v) in saline solution, and stored at 4° C. until acquisition of data in the flow cytometer. The negative controls used were isotype-matched antibodies without specificity, labeled with the same fluorochrome, which were obtained from the same company (isotype controls).
(§2) The flow cytometry data were obtained in a FACSCalibur cytometer (BD Biosciences), and the data were analyzed with the WinList 5.0 software (Verity, Me., US). The proportion of samples positive for a particular marker was determined relative to isotype controls. For quantification by histograms, an analysis was performed with the WinList software, in which the histogram of isotype staining was subtracted from the histogram of specific staining using normalized superenhanced Dmax (SED) substraction (Bagwell, C. B. (2005). Hyperlog—a flexible log-like transform for negative, zero, and positive valued data. Cytometry. 64, 34-42).

[2] = test system: enriched dendritic cells from human blood (LDCs); assay: Intracellular cytokine production in blood-enriched dendritic cells (LDCs), monensin 4 h, flow cytometry; assay type: cell-based; details: ST peptide 0.1-10 μg/mL, 4 h monensin window, FIG. 6
From the text: as §1
Half a million LDCs per milliliter were cultured in complete medium (Dutch modified RPMI 1640 (Sigma-Aldrich, Dorset, UK) containing 100 U/mL penicillin/streptomycin, 2 mM L-glutamine, […] gentamicin (Sigma-Aldrich) and fetal bovine serum at 10% (v/v) (TCS cellworks, Buckingham, UK)). These cultures were carried out in the presence of the ST peptide identified as SEQ ID NO: 1 purified at concentrations of 10 μg/mL, 1 μg/mL and 0.1 μg/mL, and of LPS (100 ng/mL) (Sigma-Aldrich, St. Louis, USA) as positive control. […]
as §2
The DCs were cultured for 4 hours in the presence/absence of monensin. […] This protocol has been extensively validated by our colleagues (Hart et al., (2005) Characteristics of intestinal dendritic cells in inflammatory bowel diseases. Gastroenterology. 129, 50-65) and makes it possible to quantify changes in the natural production of cytokines by the DCs in the absence of external stimuli such as PMA and/or ionomycin. Using this approach, the intracellular content of each cytokine is not determined. Instead, the changes induced in the production of cytokines in a temporal window of 4 hours (incubation time with monensin) are determined independently of the initial content of cytokines.

[3] = test system: dendritic cells from colon mucosa biopsies (intestinal DC); assay: Intracellular cytokine production in dendritic cells from colon mucosa biopsies; assay type: cell-based, human
Experimental: The DCs were cultured for 4 hours in the presence/absence of monensin. Then they were stained for the surface markers as described above. Next they were fixed with LeucopermA, and permeabilized with LeucopermB before adding the intracellular staining antibodies. After incubation, the DCs were washed in FACS buffer, were fixed and were acquired as described above. The analysis was performed by the SED substraction detailed above, where the histogram of each cytokine of the DCs that had not been incubated with monensin were subtracted from the histogram of each cytokine of the DCs that had been incubated in the […] of monensin. This protocol has been extensively validated by our colleagues (Hart et al., (2005) Characteristics of intestinal dendritic cells in inflammatory bowel diseases. Gastroenterology. 129, 50-65) and makes it possible to quantify changes in the natural production of cytokines by the DCs in the absence of external stimuli such as PMA and/or ionomycin. Using this approach, the intracellular content of each cytokine is not determined. Instead, the changes induced in the production of cytokines in a temporal window of 4 hours (incubation time with monensin) are determined independently of the initial content of cytokines.
Biopsies from the colon were obtained from three healthy patients, who had given their written consent to participate in this study (one woman and two men, age range 30-58 years). These patients had normal intestines, both macroscopically and histologically, and had been examined after reporting changes in intestinal transit or rectal bleeding. Once obtained, the biopsies were collected in complete medium cooled to 4° C. and were processed before the first hour counting from when they were obtained. The biopsies were incubated in Hanks's balanced salt solution (HBSS) (Gibco BRL, Paisley, Scotland, UK) containing 1 mM dithiothreitol (DTT) (Sigma-Aldrich) for 20 minutes. Next, they were incubated in a 1 mM solution of ethylenediaminetetraacetic acid (EDTA) in order to remove both the epithelial cells and the layer of mucus and its associated bacteria. […] The cellular suspensions of mononuclear cells of the lamina propria (200000 cells/mL) were incubated for 4 hours in the presence of the ST peptide identified as SEQ ID NO: 1 purified (10 μg/mL) and in the presence/absence, in its turn, of monensin, with their corresponding negative controls. The DCs of the lamina propria were identified by flow cytometry from the presence of the markers HLA-DR+ and CD3-CD14-CD16-CD19-CD34- (Hart et al. (2005) Characteristics of intestinal dendritic cells in inflammatory bowel diseases. Gastroenterology, 129, 50-65).
The remaining procedures followed in this example were the same as in section 1 of example 1.

[4] = test system: T lymphocytes stimulated by enriched dendritic cells from blood (LDC); assay: T lymphocytes stimulated with blood LDCs conditioned with ST peptide: homing markers and cytokines; assay type: cell-based, human
Experimental: (§3) The T lymphocytes were obtained from peripheral blood mononuclear cells (PBMCs). The PBMCs, obtained from freshly drawn blood as described in example 1, were resuspended in MiniMACs buffer (PBS supplemented with bovine serum albumin 0.5% (w/v) and EDTA 2 mM). This suspension was enriched with T cells by removing the CD14 positive, CD19 positive and HLA-DR positive cells with immuno-magnetized beads (Miltenyi Biotech, Bisley, UK) following the manufacturer's instructions. A percentage of T cells of 94.91%±1.06 (mean±standard deviation) was obtained as the mean value of all the extractions/enrichments.
(§4) The T cells were labeled with 5-carboxyfluorescein diacetate succinimidyl ester (CFSE, Invitrogen Ltd, UK) according to the manufacturer's instructions. The T cells thus labeled (4×10^5 cells per well) were incubated for 5 days with DCs at 0, 1, 2 or 3% in microtiter plates with U-shaped bottom. The proliferating T cells were identified and quantified by flow cytometry as those that contained a small amount of CFSE (CFSE^low) (FIG. 8).
The remaining flow cytometry protocols were carried out as described in section 1 of example 1.

[5] = test system: T lymphocytes stimulated by enriched dendritic cells from colon biopsies (gut DC); assay: T lymphocytes stimulated with intestinal mucosa DCs conditioned with ST peptide: homing markers and cytokines; assay type: cell-based, human; details: T cells stimulated with gut DCs pulsed with ST peptide, vs basal gut DC
Experimental: as §3, §4
This example is the same as the preceding example, except in this case DCs isolated from intestinal mucosa were used.

[6] = ST peptide 0.1, 1 or 10 μg/mL, FIG. 5
[7] = colon biopsies of healthy patients, ST peptide 10 μg/mL, 4 h, FIG. 7
[8] = single donor with abnormal IL-12 production, FIG. 14
[9] = T cells co-incubated with LDCs pre-incubated with ST peptide, FIGS. 10 and 11
[10] = T cells incubated 5 days with LDCs pre-incubated with ST peptide, FIG. 9

lipopolysaccharide [LPS, reference compound]
activation molecule CD83 on DCs [1]: did induce overexpression
co-stimulating molecule CD40 on DCs [1]: did induce overexpression
induction of MHC type II molecules (HLA-DR) on DCs [1]: did induce overexpression

B1: ST peptide: Peptide of 73 amino acids rich in serine and threonine, derived from protein D1 secreted by Lactobacillus plantarum; SEQ ID NO: 1 (protein, listed as Lactobacillus plantarum)
chain: GEVDGDSTTTTSTSTQTTQQTTTTQSSAQTSQTQAQPSQASQTQSSQTQTSKPAAQTTQTSSSTSNYHHHHHH
modifications: (1)..(73) ST peptide sequence
marker of migration to intestinal mucosa integrin β7 on DCs [1, 6]: did not produce changes
marker of migration to skin CLA on DCs [1, 6]: did not produce changes
activation molecule CD83 on DCs [1]: Nor did the peptide produce changes
co-stimulating molecule CD40 on DCs [1]: Nor did the peptide produce changes
induction of MHC type II molecules (HLA-DR) on DCs [1]: Nor did the peptide produce changes
production of intracellular TGFβ in LDCs [2]: did not affect
synthesis of IL-6 in LDCs [2]: reduction in the synthesis
synthesis of IL-10 in LDCs [2]: increase in the synthesis
synthesis of IL-12 in LDCs [2]: reduction in the synthesis
production of IL-10 in intestinal DCs [3, 7]: increase in the production
production of IL-12 in intestinal DCs [3, 7]: absence of any increase in the production
production of IL-10 in colon mucosa DCs of a donor with unusually high IL-12 [3, 8]: increasing the production
production of IL-12 in colon mucosa DCs of a donor with unusually high IL-12 [3, 8]: completely cancelled the production
production of IFNγ in T cells [4, 9]: decreased
production of IL-17 in T cells [4, 9]: decreased
CLA (marker of migration to skin) in T lymphocytes [4, 10]: increased considerably
integrin β7 (marker of migration to intestinal mucosa) in T lymphocytes [4, 10]: decrease
production of IL-10 in T cells ([5]; FIG. 12): even greater increase in the production
production of TGFβ in T cells ([5]; FIG. 12): even greater increase
lymphocytes expressing the marker of migration to skin (CLA) ([5]; FIG. 13): greater number of lymphocytes
